System: HEK293 cells
Format: cell-based, human
Conditions: luminescence from secreted Gluc in supernatant 24 hours after transfection of HEK293 cells; circular RNA encoding Gluc with the named IRES (UTR truncated to 675 nt)

Molecule | Expression
Aichivirus KVGH (nucleic acid, listed as Aichivirus sp.) DNA: TACTCCATTCAGCTTCTTCGGAACCTGTTCGGAGGAATTAAACGGGCACCCATACTCCCCCCCACCCCCCTTTTGTAACTAAGTATGTGTGCTCGTGACCTTGACTCCCACGGAACGGACCGATCCGTTGGTGAACAAACAGCTAGGTCCACATCCTCCTTTCCCCTGGGAGGGTCCCCGCCCTCCCACATCCCCCCCCCAGCCTGACGTGTCACAGGCTGTGTGAAGCCCCCGCGAAAGCTGCTCACGTGGCAATTGTGGGTCCCCCCTTCATCAAGACACCAGGTCTTTCCTCCTTAAGGCTAGCCCCGGCGTGTGAACTCACGTTGGGCAACTAGTGGTGTCACTGTGCGCTCCCAATCTCGGCCGCGGAGTGCTGTTCCCCAAGCCAAACCCCTGGCCCTTCACTATGTGCCTGGCAAGCACACCTGAGAAGGTGTTCCGCTGTGGCTGCCAGCCTGGTAACAGGTGCCCCAGTGTGCGTAACCTTCTTCCGTCTTCGGACGGTGGTGATTGGTTAAGATTTGGTGTAAGGTTCATGTGCCAACGCCCTGTGCGGGATGAAACCTCTACTGCCCTAGGAATGCCAGGCAGGTACCCCACCTTCGGGTGGGATCTGAGCCTGGGCTAATTGTCTACGGGTGGTTTCATTTCCAATTCTTTCATGTCGGAGTC | 1.72E+07
Human enterovirus C105 (nucleic acid, listed as Enterovirus sp.) DNA: CCCCTAGGATCCACTGGATGTCAGTACACTGGTATCGTGGTACCTTTGTACGCCTGTTTTATACCCCCTTCCCCGCAACTTTAGAAGCATCAAAAGCACCGCTCAATAGTCACCACACCCCCAGTGTGGTTTCGAGCAAGCACTTCTGTTTTCCCGGTTGCGTCCCATATGCTGTGCAAACGGCAAAAAGGGACAATATCGTTACCCGCTTGTATACTACGGGAAACCTAGTACCACCATTGATTGTGTTGAGAGTTGCGCTCATCACCTTTCCCCGGTGTAGCTCAGGCCGATGAGGCTCAGAATCCCCCACAGGTGACTGTGTCTGAGCCTGCGTTGGCGGCCTGCCCTCGCCTTATGGCGTGGGACGCTTGATACATGACATGGTGCGAAGAGTCTACTGTGCTATGCAAGAGTCCTCCGGCCCCTGAATGTGGCTAATCCTAACCACTGATCCCACGCACGCAAACCAGTGTGTAGTGGGTCGTAACGCGCAAGTCGGTGGCGGAACCAACTACTTTGGGTGACCGTGTTTCCTTTATTACTTATTGAATGTTTATGGTGACAATTGTTTGATTCAGTTGTTGCCATTCTCTACATTCATTTACCCAGCATCAAACCAATTGAACTGTTACA | 5.49E+05
Bat picornavirus isolate BtRs-PicoV (nucleic acid) DNA: TTTCAAAAGGCCCTGGGCATACGGCGTTATTCGTAACGTCGTATGTCCAGGGCGGTAGCATCAGGCCAAGGCCTGATGCTACCACGTGTGGACTAAACCACACACTCTTCTTGTGACACGTTGTGTCACCTATCCCTTTCTTGGTAACTTAGAAGCTTGTACACTTACGCACGTAGGTGCCCCACATCCAGTGGGGTTTGTGCAAAGCAATCTTGTTCCCCGGTAAACCCTGATAGGCTGTAACCACGGCCGAAACAAGGTTTGTCGTTACCCGACTCACTACTACACAAAGCCTAGTAAAGTTCAATGAAAGTGCGCAGCGTGATCCGGTCAAAACCCCCTTGACCAGAAACACATGATGAGGGTCACCAACCCCCACTGGCGACAGTGTGGTGTCCCTGCGTTGGCATGTGGCCTCGTAGAGGCGTTGCAATCTGGATTTGCTCCGAAGAGCCCCGTGTGCTAGTGTTTATACCTCCGGCCCCTTGAATGCGGCTAATCCTAACCCCCGAGCATGTACACACAAGCCAGTGTGTAGCATGTCGTAATGAGCAATTTGGGGATGGAACCGACTACTTTAGGGTGTCCGTGTTTCTCATTATTCTTTGTTTGATGTTTT | 1.13E+06
Niviventer confucianus picornavirus (nucleic acid) DNA: CCCTTTCATAACCCCCCCCTTTTAACCCAACCCTTCGTAACCGTACGCTTCACTCGCCTTTGGGTATAGCGGCCCAATGTGCTGAAGAAAAGGATACGCTATAAGGGGCCAACGGGTGGTGGCCCTTAAGACCACCCAACCTAGAAGCTTGTACACTCGGGCAATAGTGAGGCCCACATCCAGTGGGTCAAGCCCAAAGCATTCTTGTTCCCCGGTATGATCTCATAAGCTGTACCCACGGCTGAAAGAGTGATTATCGTTATCCCACTCAGTACTTCGGAGAGCCTAGTACACCACTTGGAAATGGAAGTCTGTGATCCGGGGTTGACCCTGAACCCCAGAAACTCATGATGAGGCTAACCTTCCCGAACACGGCGACGTGTGGTTAGCCTGCGCTGGCATGAGGCCTCTTTGTAGGCAGACTGAAATGGAAGGGTGACGAAGAGCCGACTGAGCTACTGTTTTATTCCTCCGGCCCCCTGAATGCGGCTAATCCTAACTCCTGGTCCAGTACTTGTAACCCAACAGGTGGCTGGTCGTAATGCGTAAGCCGGGAGCGGAACCGACTACTTTGGGGCGTCCGTGTTTCTCAATATTATTCATTTCTAGCTTATGGTGACAATTTATGATTGCAGAGATTGTGCTGTATTTGTGTCTGAGAGAAGAAGTAACAAT | 6.10E+07
Apodemus agrarius picornavirus strain Longquan-Aa118 (nucleic acid) DNA: TTACTCAGCGTAACTACTCCGGGTTACGTGATGAAGAAGAGGCTACGGAGATTCTCGGGCTACGGCCCTGGAGCCACTCCGGCTCCTAAAGATTTAGAAGTTTGAGCACACCCGCCCACTAGGGCCCCCCATCCAGGGGGGCAACGGGCAAGCACTTCTGTTTCCCCGGTATGATCTGATAGGCTGTAACCACGGCTGAAACAGAGATTATCGTTATCCGCTTCACTACTTCGAGAAGCCTAGTAATGATGGGTGAAATTGAATCCGTTGATCCGGTGTCTCCCCCACACCAGAAACTCATGATGAGGGTTGCCATCCCGGCTACGGCGACGTAGCGGGCATCCCTGCGCTGGCATGAGGCCTCTTAGGAGGACGGATGATATGGATCTTGTCGTGAAGAGCCTATTGAGCTAGTGTCGACTCCTCCGCCCCCGTGAATGCGGCTAATCCTAACCCCGGAGCAGGTGGGTCCAATCCAGGGCCTGGCCTGTCGTAATGCGTAAGTCTGGGACGGAACCGACTACTTTCGGGAAGGCGTGTTTCCATTTGTTCATTATTTGTGTGTTTATGGTGACAACTCTGGGTAAACGTTCTATTGCGTTTATTGAGAGATTCCCAACAATTGAACAAACGAGAACTACCTGTTTTATTAAATTTACACAGAGAAGAATTACA | 1.90E+08
Rhinolophus picornavirus strain Henan-Rf265 (nucleic acid) DNA: CGGAACGTTGTATGCTCAGGGCGTAGGCACCACCCACGGGTGGTGCCTACACGTGTGGACTAAACCACACACTCTTTTCAGCACTTAGTGCTGCTATCTCTTTTTGTAACTTAGAAGTTTGTACACAATGCGTTAGGGCCACACATCCAGTGTGGTATCGCAAAGCACTTCTGTTTCCCCGGTGCTAGTAGGAGGGTGGCTGCTCCACGGCCACTTGCCGAACCCATCGTTACCCGACTCATTACTTCGCAAAGCCTAGTAACCCAGTTGAAGCAAGCCCGGCGTGTTCCGGTCAGGAAAAACCCCCCCTGGCCAGAAACATGTGATGAGGGTGGGCTATCCCCACTGGTGACAGTGAGCCCTCCCTGCGTTGGCACATGGCCCGATCTGGGCGTGGTTCTTGTGGATGCTGCCGAAGAGCCCCGTGAGCTAGTGTTTATACCGCCGGCCTCGTGAATGCGGCTAACCCTAACCCCGGAGCAGAGGCTACTGAAGCCACAGTAGTCGCTGTCGTAACGAGTAATTCTGGGATGGGACCGACTACTTTCGAGTGTCCGTGTTTCCTTTATTCTTTTATTGTTGTTTATGGTGACAAAC | 3.85E+05

From patent US20230226096A1 (Orna Therapeutics, Inc., priority 2020, published 2023)
